The values that follow come from IntAct's records for PubMed 20185822.

B1: Autoimmune regulator (Homo sapiens), O43918 (parent)
chain: MATDAALRRLLRLHRTEIAVAVDSAFPLLHALADHDVVPEDKFQETLHLKEKEGCPQAFHALLSWLLTQDSTAILDFWRVLFKDYNLERYGRLQPILDSFPKDVDLSQPRKGRKPPAVPKALVPPPRLPTKRKASEEARAAAPAALTPRGTASPGSQLKAKPPKKPESSAEQQRLPLGNGIQTMSASVQRAVAMSSGDVPGARGAVEGILIQQVFESGGSKKCIQVGGEFYTPSKFEDSGSGKNKARSSSGPKPLVRAKGAQGAAPGGGEARLGQQGSVPAPLALPSDPQLHQKNEDECAVCRDGGELICCDGCPRAFHLACLSPPLREIPSGTWRCSSCLQATVQEVQPRAEEPRPQEPPVETPLPPGLRSAGEEVRGPPGEPLAGMDTTLVYKHLPAPPSAAPLPGLDSSALHPLLCVGPEGQQNLAPGARCGVCGDGTDVLRCTHCAAAFHWRCHFPAGTSRPGTGLRCRSCSGDVTPAPVEGVLAPSPARLAPGPAKDDTASHEPALHRDDLESLLSEHTFDGILQWAIQSMARPAAPFPS

The variants in this assay derive from B1. To be noted: with daxx_human DAXX.
With W78R, the “effect of a mutation on the interaction” value was “decreasing interaction”.
